Laboratory results: publication PMC4003909 (Structure (London, England : 1993), 2013)

What was measured:
[1] = molecular target: BCOR PUFD (1634-1748) with METR leader, co-expressed and purified with PCGF1 RAWUL (human, UniProt Q6W2J9 1634-1748); assay: AUC
[2] = molecular target: T1, BCORL1 PUFD (1594-1711) with METR leader, co-expressed and purified with PCGF1 RAWUL (human, UniProt Q5H9F3-1 1594-1711); assay: AUC
T1 sequence: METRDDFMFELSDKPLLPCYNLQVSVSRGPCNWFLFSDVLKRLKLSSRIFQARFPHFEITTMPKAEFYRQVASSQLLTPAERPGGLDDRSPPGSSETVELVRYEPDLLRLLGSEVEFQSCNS

B1: PCGF1 RAWUL (167-255), co-expressed and purified with a PUFD (domain or fragment, human, UniProt Q9BSM1 167-255, looked up)
chain: EQLNLCLERLSSGKDKNKSVLQNKYVRCSVRAEVRHLRRVLCHRLMLNPQHVQLLFDNEVLPDHMTMKQIWLSRWFGKPSPLLLQYSVK
B1 was tested, and the Kd [1] was under 8.5 µM and the Kd [2] was under 8.5 µM.
